Measurements reported in patent publication US20240076353A1.

Molecular target: IL-15R β protein
Assay: BLI (Octet-RED); IL-15R β immobilized on Ni-NTA biosensors, serial dilutions of the complex as analyte, global 1:1 fit

Chain of IL-15R β protein (P14784 27-240): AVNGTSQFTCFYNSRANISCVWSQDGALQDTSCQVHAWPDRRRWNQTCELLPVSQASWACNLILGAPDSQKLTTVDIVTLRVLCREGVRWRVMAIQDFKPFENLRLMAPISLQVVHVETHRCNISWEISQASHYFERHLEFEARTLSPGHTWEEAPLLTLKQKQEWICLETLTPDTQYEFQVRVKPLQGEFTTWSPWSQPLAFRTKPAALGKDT

Kd: 3.9 nM
koff: 0.000235 s⁻¹
kon: 60400 M⁻¹ s⁻¹
Substance: ALT803 (Fc fusion)
